Laboratory results published in article PMC12731327, “Structural Analysis of the Putative Succinyl-Diaminopimelic Acid Desuccinylase DapE from Campylobacter jejuni: Captopril-Mediated Structural Stabilization” (Current Issues in Molecular Biology, 2025).

Biological target: the molecule itself
Assay: SEC; 100 μg tag-free cjDapE on Superdex 200 10/300, 20 mM Tris pH 8.0, 150 mM NaCl, 5 mM β-mercaptoethanol; size by calibration with gel-filtration standards

B1: Campylobacter jejuni DapE (N-succinyl-L,L-diaminopimelic acid desuccinylase) (enzyme, UniProt Q0P9K4 1-365, looked up)
chain: MNAKEFLIELLKFKSVTPNDDGALNFIAMELSDFEAFFIEKEGIKNLLLTKKFKDEGEHLAFGGHVDVVPAGEGWSNNAFAPVEKEGFIYARGAQDMKSGVAAFVDAAKNADFKGARLSLILTSDEEGEAIYGTKAVLEWMQERDMLPDYAVVAEPTCVKKIGDSIKIGRRGSINGKLLIRGKQGHVAYPEKCINPVHDFAPVLKLLAGFDLDPGSAEFSPSKIVITDIRGGMGVCNVTPNDLKLMFNVRNSPDTSLEDVKSYVEKICHGLNYELELKQSSEAFLTNIDNKIVQKMNESVQKITHEVPELNTKGGTSDARYFAKYGVKVVEFGVCNDRIHAIDERVSIEEFEKLCLVFKDLIENF
notes: DapE of Campylobacter jejuni (ATCC 33291 genomic DNA), gene dapE (cj1048c), 365-residue protein, residues 1-365; in one crystal also captopril; The His6 tag was removed with thrombin; also called cjDapE; cjDapEZn; source: E. coli BL21 (DE3), purified (Ni-NTA, thrombin cleavage, Mono Q anion exchange); not shown: His6, N-terminal, cleaved
  stoichiometry N: 2
